Data reported in US8008256B2, “Combination therapy for treatment of cancer” (priority 2006, dated 2011).

Experiments:
PC-3 tumors = test: PC-3 xenograft tumor growth; assay type: in vivo, athymic male nude mice (Balb/c/nu/nu mice); settings: for mean tumor volume after four weeks: docetaxel i.p. 6 then 4 mg/kg twice a week, CN 60 μg/day osmotic mini-pump, control 378±49; for suppression of growth of PC-3 tumors: four weeks treatment
Procedure: 100 μl of PC-3 cell suspension (1×10^6 cells) (ATCC.org, Manassas, Va.) was mixed with an equal volume, 100 μl of Matrigel basement membrane matrix (BD Biosciences, Bedford, Mass.) and injected subcutaneously into the flank region of athymic male nude mice (Balb/c/nu/nu mice) (Charles River Laboratory, Wilmington, Mass.). Four weeks after inoculation, 32 mice with PC-3 tumors were randomized into four groups with 8 mice in each group. The control group was treated with PBS and released from Alzet osmotic mini-pumps for four weeks. The second group was treated with docetaxel injections intraperitoneally at a dose of 6 mg/kg twice a week for two weeks and then switched to 4 mg/kg twice a week for two weeks. The third group was treated with contortrostatin (CN) at a dose of 60 μg/day which was continually released from subcutaneously implanted Alzet osmotic mini-pumps for four weeks. The fourth group was treated with a combination of docetaxel and CN at doses indicated in groups 2 and 3 for four weeks. Tumor volume was measured one a week and are calculated according to the formula: length×width^2×0.52.

MDA-MB-435 cells = test: MDA-MB-435 cell invasion through Matrigel/ECMatrix in modified Boyden chamber; assay type: cell-based, human; settings: 10, 100, 1000 nM; 8 hrs in Boyden chamber
Procedure: (§1) Pretreated cells were allowed to adhere for 1 hr at 25° C., and after non-adherent cells were washed away, the number of adherent cells for each condition was estimated using the MTS cell viability assay. In the cell invasion assay, an invasion chamber consisting of cell culture inserts that fit into 24-well tissue culture plate has been utilized. The inserts contain an 8 μm-pore size polycarbonate membrane, over which a thin layer of ECMatrix™ was applied. The ECMatrix™ serves as an in vitro reconstituted basement membrane and is a solid gel of ECM proteins prepared from the Engelbreth Holm-Swarm (EHS) mouse tumor. The ECM layer occludes the membranes pores, blocking non-invasive cells to migrate through. The cells were incubated in the presence of various concentrations (10, 100, 1000 nM) of either native CN or Vicrostatin for 30 min at 25° C. and then allowed to migrate in the Boyden chamber for 8 hrs. At the 8 hr time point the cells that invaded through the pores into the lower chamber were measured. The numbers of invaded cells for each condition were approximated by quantitating the retrieved labeled DNA using a fluorescent plate reader. The results were calculated in % invasion, where the untreated control was considered as 100% invasion.

[1] = target: T1, GPIIb/IIIa (integrin αIIbβ3) (Homo sapiens, UniProt P05106+P08514); test: platelet aggregation inhibition assay (ADP induced, platelet-rich plasma); assay type: cell-based
T1 construct: endogenous in cells
Procedure: The recombinant CN products were evaluated for biological activity by a platelet aggregation inhibition assay. According to this assay, CN binding to GPIIb/IIIa (integrin αIIbβ3) in an RGD dependent manner inhibits ADP induced platelet aggregation (Trikha, Rote, et al. 1994). In this assay, potential inhibitors are added to fresh platelet-rich plasma, and after minute, ADP is added to a final concentration of 1 μM to induce aggregation. If inhibitor is present, functional aggregation will not occur. The IC50 is defined as the concentration at which 50% of the activity is inhibited, and is used as a measure of the potency of an inhibitor.

[2] = tested on: MDA-MB-435 breast carcinoma cells; test: inhibition of MDA-MB-435 cell adhesion to immobilized vitronectin (Vn); assay type: cell-based, human; settings: pretreatment 30 min, 0-1000 nM; adhesion 1 hr at 25° C.; MTS
Procedure: as §1

[3] = tested on: MDA-MB-435 breast carcinoma cells; test: inhibition of MDA-MB-435 cell adhesion to immobilized fibronectin (Fn); assay type: cell-based, human; settings: pretreatment 30 min, 0-1000 nM; adhesion 1 hr at 25° C.; MTS
Procedure: as §1

[4] = liposome encapsulation efficiency (BCA protein assay); assay type: physicochemical
Procedure: Endotoxin-free VN containing liposomes (referred to as LVN) and endotoxin-free native CN containing liposomes (referred to as LCN) were prepared utilizing a probe sonication previously described (Fujii, Chang et al. 1997). Briefly, the lipids (disteroylphosphatidylcholine, cholesterol and polyethylene glycol derivatized lipid) were dissolved in a chloroform/methanol solution. Thin lipid films were created by pipetting aliquots of the lipid solution into round bottom glass tubes followed by solvent evaporation at 65° C. under a stream of nitrogen gas. The films were placed under vacuum for at least 24 hours to remove residual organic solvent. Liposomes formed following hydration of the lipid films with native CN or VN dissolved in 10 mM sodium phosphate, 9% sucrose, pH 7.2. The mixture was incubated at 65° C. for 5-10 minutes. Hydration was followed by probe sonication until the suspension was translucent. […]
The concentration of liposome entrapped CN/VN was determined by disruption of the liposomes with chloroform/methanol/water (10:40:50) followed by centrifugation at 14,000×g. The supernatant was analyzed for CN/VN concentration using BCA protein assay (Smith et al., Anal. Biochem. 150(1): 76-85 (1985)). The encapsulation efficiency was assessed by BCA protein determination following disruption of the LrCN with a solution of H2O methanol: chloroform.

Molecule | mean tumor volume after four weeks (PC-3 tumors) [mm^3] | suppression of growth of PC-3 tumors (PC-3 tumors) | inhibition of MDA-MB-435 cell invasion (MDA-MB-435 cells) | inhibition of platelet aggregation ([1]; even at low μM concentrations) | inhibition of adhesion of MDA-MB-435 cells to immobilized vitronectin (Vn) [2] | inhibition of adhesion of MDA-MB-435 cells to immobilized fibronectin (Fn) [3] | protein in the encapsulation solution entrapped within the liposomes [4] [%] | IC50 in the platelet inhibition assay ([1]; ADP 1 μM induced aggregation)
CC(=O)O[C@@]12CO[C@@H]1C[C@H](O)[C@@]1(C)C(=O)[C@H](O)C3=C(C)[C@@H](OC(=O)[C@H](O)[C@@H](NC(=O)OC(C)(C)C)c4ccccc4)C[C@@](O)([C@@H](OC(=O)c4ccccc4)[C@H]21)C3(C)C [docetaxel, reference compound] | 259±38 | significantly suppressed | – | – | – | – | – | –
rCN: recombinant CN disintegrin domain without the HKGPAT sequence | – | – | inactive in the nanomolar range | did not inhibit platelet aggregation | inactive in the nanomolar range | inactive in the nanomolar range | – | –
native CN (protein) DAPANPCCDAATCKLTTGSQCADGLCCDQCKFMKEGTVCRRARGDDLDDYCNGISAGCPRNPFH | 195±40 | significantly suppressed | – | – | inhibited adhesion | inhibited adhesion | 80 | almost identical
